In the supplement of paper PMC9112550, “Optimization of the antimicrobial peptide Bac7 by deep mutational scanning” (BMC Biology, 2022):

Tested on: Escherichia coli TOP10
Assay: shrunken log2 fold change of peptide-encoding DNA abundance (4.5 h post-induction vs induction); higher = less antimicrobial activity (less host growth inhibition)
Conditions: time post-induction: 4.5 h; library: site-saturation at positions 5, 18, 19, 20
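Also: peptides expressed intracellularly from a pBAD plasmid library in pooled LB shake-flask culture, induced with 0.3% L-arabinose, DNA abundance read by NGS, three biological replicates, DESeq2 with apeglm shrinkage.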

| Sequence | shrunken log2 fold change |
| --- | --- |
| RRIRRRPPRLPRPRPRPRFNPRP | -0.189 |
| RRIRMRPPRLPRPRPRPKMIPRP | -0.0167 |
| RRIRYRPPRLPRPRPRPCNSPRP | -0.168 |
| RRIRHRPPRLPRPRPRPEPFPRP | 0.0638 |
| RRIRRRPPRLPRPRPRPDVRPRP | 0.0483 |
| RRIRDRPPRLPRPRPRPLCRPRP | -0.0528 |
| RRIRVRPPRLPRPRPRPHAGPRP | 0.108 |
| RRIRPRPPRLPRPRPRPCWWPRP | 0.742 |
| RRIRFRPPRLPRPRPRPIYVPRP | -0.871 |
| RRIRSRPPRLPRPRPRPTLMPRP | 0.091 |
| RRIRVRPPRLPRPRPRPCVCPRP | -0.0618 |
| RRIRMRPPRLPRPRPRPHRIPRP | 0.0956 |
| RRIRYRPPRLPRPRPRPGNWPRP | -0.163 |
| RRIRFRPPRLPRPRPRPMKTPRP | -0.0807 |
| RRIRLRPPRLPRPRPRPMQTPRP | 0.0393 |
| RRIRGRPPRLPRPRPRPGMDPRP | 1.06 |
| RRIRFRPPRLPRPRPRPYGGPRP | -0.00865 |
| RRIRLRPPRLPRPRPRPNAAPRP | -0.0536 |
| RRIRFRPPRLPRPRPRPVTTPRP | 0.173 |
| RRIRSRPPRLPRPRPRPSPNPRP | 0.0503 |

| Sequence | shrunken log2 fold change |
| --- | --- |
| RRIRARPPRLPRPRPRPRDIPRP | 0.0507 |
| RRIRARPPRLPRPRPRPVDDPRP | 0.469 |
| RRIRERPPRLPRPRPRPEQDPRP | -0.0751 |
| RRIRGRPPRLPRPRPRPWGCPRP | 0.702 |
| RRIRMRPPRLPRPRPRPKRAPRP | 2.44 |
| RRIRDRPPRLPRPRPRPDPPPRP | 0.627 |
| RRIRFRPPRLPRPRPRPSMMPRP | -0.941 |
| RRIRWRPPRLPRPRPRPADIPRP | 0.0169 |
| RRIRSRPPRLPRPRPRPMHSPRP | -0.055 |
| RRIRMRPPRLPRPRPRPWPWPRP | -0.00171 |
| RRIRGRPPRLPRPRPRPKKSPRP | 0.834 |
| RRIRFRPPRLPRPRPRPMQVPRP | -0.228 |
| RRIRNRPPRLPRPRPRPGGHPRP | -0.102 |
| RRIRIRPPRLPRPRPRPYSEPRP | -0.535 |
| RRIRNRPPRLPRPRPRPYNPPRP | -0.299 |
| RRIRVRPPRLPRPRPRPDWTPRP | 0.00219 |
| RRIRDRPPRLPRPRPRPIWKPRP | -0.00783 |
| RRIRLRPPRLPRPRPRPNFRPRP | -0.195 |
| RRIRERPPRLPRPRPRPFKDPRP | -0.0062 |
| RRIRGRPPRLPRPRPRPQFIPRP | 0.0876 |

| Sequence | shrunken log2 fold change |
| --- | --- |
| RRIRMRPPRLPRPRPRPMSPPRP | 0.00473 |
| RRIRIRPPRLPRPRPRPYLKPRP | 0.000419 |
| RRIRWRPPRLPRPRPRPGVVPRP | 0.576 |
| RRIRMRPPRLPRPRPRPWPPPRP | 1.09 |
| RRIRGRPPRLPRPRPRPEDNPRP | 0.892 |
| RRIRARPPRLPRPRPRPHEKPRP | 0.358 |
| RRIRLRPPRLPRPRPRPEVLPRP | -0.0871 |
| RRIRHRPPRLPRPRPRPGCQPRP | 0.0291 |
| RRIRGRPPRLPRPRPRPGCRPRP | 1.16 |
| RRIRCRPPRLPRPRPRPDHLPRP | -0.0314 |
| RRIRERPPRLPRPRPRPQQIPRP | -0.384 |
| RRIRNRPPRLPRPRPRPHLIPRP | -0.00549 |
| RRIRQRPPRLPRPRPRPYDTPRP | -0.307 |
| RRIRERPPRLPRPRPRPWLTPRP | -0.0528 |
| RRIRIRPPRLPRPRPRPESAPRP | 0.0116 |
| RRIRARPPRLPRPRPRPESRPRP | 0.147 |
| RRIRIRPPRLPRPRPRPYLEPRP | -0.849 |
| RRIRIRPPRLPRPRPRPWHHPRP | -0.126 |
| RRIRARPPRLPRPRPRPSMAPRP | 0.333 |
| RRIRRRPPRLPRPRPRPAHEPRP | 0.598 |
